Data from PMC2896254 (Biopolymers, 2009).
Where two headings read alike, the source gives them in different places. The star is where a group is joined. MBP = 4-(maleimido)benzophenone, alkylating the Cys, O=C(c1ccccc1)c1ccc(N2C(=O)CC(*)C2=O)cc1; Biotin = O=C1N[C@H]2[C@H](CS[C@H]2CCCCC(=O)*)N1

B1: BioPhoAC10 (peptide)
peptide: Biotin-MKQKKKLALCLLLLLLTPVTKA-NH2
SMILES: CSCC[C@H](NC(=O)CCCC[C@@H]1SC[C@@H]2NC(=O)N[C@@H]21)C(=O)N[C@@H](CCCCN)C(=O)N[C@@H](CCC(N)=O)C(=O)N[C@@H](CCCCN)C(=O)N[C@@H](CCCCN)C(=O)N[C@@H](CCCCN)C(=O)N[C@@H](CC(C)C)C(=O)N[C@@H](C)C(=O)N[C@@H](CC(C)C)C(=O)N[C@@H](CS)C(=O)N[C@@H](CC(C)C)C(=O)N[C@@H](CC(C)C)C(=O)N[C@@H](CC(C)C)C(=O)N[C@@H](CC(C)C)C(=O)N[C@@H](CC(C)C)C(=O)N[C@@H](CC(C)C)C(=O)N[C@H](C(=O)N1CCC[C@H]1C(=O)N[C@H](C(=O)N[C@H](C(=O)N[C@@H](CCCCN)C(=O)N[C@@H](C)C(N)=O)[C@@H](C)O)C(C)C)[C@@H](C)O
B2: BioPhoAC13 (peptide)
peptide: Biotin-MKQKKKLALLLLCLLLTPVTKA-NH2
SMILES: CSCC[C@H](NC(=O)CCCC[C@@H]1SC[C@@H]2NC(=O)N[C@@H]21)C(=O)N[C@@H](CCCCN)C(=O)N[C@@H](CCC(N)=O)C(=O)N[C@@H](CCCCN)C(=O)N[C@@H](CCCCN)C(=O)N[C@@H](CCCCN)C(=O)N[C@@H](CC(C)C)C(=O)N[C@@H](C)C(=O)N[C@@H](CC(C)C)C(=O)N[C@@H](CC(C)C)C(=O)N[C@@H](CC(C)C)C(=O)N[C@@H](CC(C)C)C(=O)N[C@@H](CS)C(=O)N[C@@H](CC(C)C)C(=O)N[C@@H](CC(C)C)C(=O)N[C@@H](CC(C)C)C(=O)N[C@H](C(=O)N1CCC[C@H]1C(=O)N[C@H](C(=O)N[C@H](C(=O)N[C@@H](CCCCN)C(=O)N[C@@H](C)C(N)=O)[C@@H](C)O)C(C)C)[C@@H](C)O
B3: BioPhoAC11 (peptide)
peptide: Biotin-MKQKKKLALLCLLLLLTPVTKA-NH2
SMILES: CSCC[C@H](NC(=O)CCCC[C@@H]1SC[C@@H]2NC(=O)N[C@@H]21)C(=O)N[C@@H](CCCCN)C(=O)N[C@@H](CCC(N)=O)C(=O)N[C@@H](CCCCN)C(=O)N[C@@H](CCCCN)C(=O)N[C@@H](CCCCN)C(=O)N[C@@H](CC(C)C)C(=O)N[C@@H](C)C(=O)N[C@@H](CC(C)C)C(=O)N[C@@H](CC(C)C)C(=O)N[C@@H](CS)C(=O)N[C@@H](CC(C)C)C(=O)N[C@@H](CC(C)C)C(=O)N[C@@H](CC(C)C)C(=O)N[C@@H](CC(C)C)C(=O)N[C@@H](CC(C)C)C(=O)N[C@H](C(=O)N1CCC[C@H]1C(=O)N[C@H](C(=O)N[C@H](C(=O)N[C@@H](CCCCN)C(=O)N[C@@H](C)C(N)=O)[C@@H](C)O)C(C)C)[C@@H](C)O
B4: BioPhoAC11-BP (peptide)
peptide: Biotin-MKQKKKLALLC(MBP)LLLLLTPVTKA-NH2
SMILES: CSCC[C@H](NC(=O)CCCC[C@@H]1SC[C@@H]2NC(=O)N[C@@H]21)C(=O)N[C@@H](CCCCN)C(=O)N[C@@H](CCC(N)=O)C(=O)N[C@@H](CCCCN)C(=O)N[C@@H](CCCCN)C(=O)N[C@@H](CCCCN)C(=O)N[C@@H](CC(C)C)C(=O)N[C@@H](C)C(=O)N[C@@H](CC(C)C)C(=O)N[C@@H](CC(C)C)C(=O)N[C@@H](CSC1CC(=O)N(c2ccc(C(=O)c3ccccc3)cc2)C1=O)C(=O)N[C@@H](CC(C)C)C(=O)N[C@@H](CC(C)C)C(=O)N[C@@H](CC(C)C)C(=O)N[C@@H](CC(C)C)C(=O)N[C@@H](CC(C)C)C(=O)N[C@H](C(=O)N1CCC[C@H]1C(=O)N[C@H](C(=O)N[C@H](C(=O)N[C@@H](CCCCN)C(=O)N[C@@H](C)C(N)=O)[C@@H](C)O)C(C)C)[C@@H](C)O
B5: BioPhoAC12 (peptide)
peptide: Biotin-MKQKKKLALLLCLLLLTPVTKA-NH2
SMILES: CSCC[C@H](NC(=O)CCCC[C@@H]1SC[C@@H]2NC(=O)N[C@@H]21)C(=O)N[C@@H](CCCCN)C(=O)N[C@@H](CCC(N)=O)C(=O)N[C@@H](CCCCN)C(=O)N[C@@H](CCCCN)C(=O)N[C@@H](CCCCN)C(=O)N[C@@H](CC(C)C)C(=O)N[C@@H](C)C(=O)N[C@@H](CC(C)C)C(=O)N[C@@H](CC(C)C)C(=O)N[C@@H](CC(C)C)C(=O)N[C@@H](CS)C(=O)N[C@@H](CC(C)C)C(=O)N[C@@H](CC(C)C)C(=O)N[C@@H](CC(C)C)C(=O)N[C@@H](CC(C)C)C(=O)N[C@H](C(=O)N1CCC[C@H]1C(=O)N[C@H](C(=O)N[C@H](C(=O)N[C@@H](CCCCN)C(=O)N[C@@H](C)C(N)=O)[C@@H](C)O)C(C)C)[C@@H](C)O
B6: BioPhoAC14 (peptide)
peptide: Biotin-MKQKKKLALLLLLCLLTPVTKA-NH2
SMILES: CSCC[C@H](NC(=O)CCCC[C@@H]1SC[C@@H]2NC(=O)N[C@@H]21)C(=O)N[C@@H](CCCCN)C(=O)N[C@@H](CCC(N)=O)C(=O)N[C@@H](CCCCN)C(=O)N[C@@H](CCCCN)C(=O)N[C@@H](CCCCN)C(=O)N[C@@H](CC(C)C)C(=O)N[C@@H](C)C(=O)N[C@@H](CC(C)C)C(=O)N[C@@H](CC(C)C)C(=O)N[C@@H](CC(C)C)C(=O)N[C@@H](CC(C)C)C(=O)N[C@@H](CC(C)C)C(=O)N[C@@H](CS)C(=O)N[C@@H](CC(C)C)C(=O)N[C@@H](CC(C)C)C(=O)N[C@H](C(=O)N1CCC[C@H]1C(=O)N[C@H](C(=O)N[C@H](C(=O)N[C@@H](CCCCN)C(=O)N[C@@H](C)C(N)=O)[C@@H](C)O)C(C)C)[C@@H](C)O

Experiments:
Test in all cases: pull-down
[1] = biological target: T1, Wild-type full-length Ffh carrying an N-terminal deca-His tag (E. coli, UniProt P0AGD7 1-453)
T1 sequence (looked up): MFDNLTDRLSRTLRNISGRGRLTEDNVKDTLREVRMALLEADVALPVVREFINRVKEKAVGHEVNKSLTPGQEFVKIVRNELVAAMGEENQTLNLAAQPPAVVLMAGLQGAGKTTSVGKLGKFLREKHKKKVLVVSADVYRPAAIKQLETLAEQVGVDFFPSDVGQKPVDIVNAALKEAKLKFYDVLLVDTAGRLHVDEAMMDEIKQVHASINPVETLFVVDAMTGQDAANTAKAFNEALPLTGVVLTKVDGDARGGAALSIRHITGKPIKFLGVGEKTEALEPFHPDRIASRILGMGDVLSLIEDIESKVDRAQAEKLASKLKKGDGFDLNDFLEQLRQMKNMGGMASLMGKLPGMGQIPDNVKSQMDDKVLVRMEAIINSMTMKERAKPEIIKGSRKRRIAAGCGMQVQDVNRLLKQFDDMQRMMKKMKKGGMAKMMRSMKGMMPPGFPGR

[2] = biological target: T1, Wild-type full-length Ffh carrying an …; remark: listed apart in the source
[3] = biological target: T2, His-tagged M domain of Ffh (M297 to R453) (E. coli, UniProt P0AGD7 297-453)
T2 sequence (looked up): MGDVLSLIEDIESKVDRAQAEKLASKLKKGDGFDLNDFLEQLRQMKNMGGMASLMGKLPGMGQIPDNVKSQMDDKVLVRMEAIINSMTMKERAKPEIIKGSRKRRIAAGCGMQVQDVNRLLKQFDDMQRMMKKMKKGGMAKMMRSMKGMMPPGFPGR

[4] = biological target: T3, His-tagged NG domain of Ffh (residues M1 to V300) (E. coli, UniProt P0AGD7 1-300)
T3 sequence (looked up): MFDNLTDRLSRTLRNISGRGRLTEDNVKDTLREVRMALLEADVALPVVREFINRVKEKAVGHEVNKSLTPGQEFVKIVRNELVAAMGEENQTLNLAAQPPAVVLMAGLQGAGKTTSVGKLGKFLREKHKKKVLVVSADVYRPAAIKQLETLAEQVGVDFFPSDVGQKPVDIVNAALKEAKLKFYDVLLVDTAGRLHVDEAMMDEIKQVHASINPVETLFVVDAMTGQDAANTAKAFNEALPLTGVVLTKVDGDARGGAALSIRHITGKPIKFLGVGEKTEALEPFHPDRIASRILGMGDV

Row | Binder | binding result [1] | binding result [2] | also measured
1 | B1 | binds | – | –
2 | B2 | – | binds | –
3 | B3 | binds | – | binding result [3]: binds; binding result [4]: binds
4 | B4 | binds | – | –
5 | B5 | – | binds | –
6 | B6 | – | binds | –
